Reference: patent publication US20190032033A1 (HEPTARES THERAPEUTICS, published 2019)
Substitutions are numbered along the chain they refer to. Where two headings read alike, the source gives them in different places.

Legend:
[1] = target: T1, C-terminally truncated human A2AR (residues 1-317, N154A) (human, UniProt P29274 1-317); assay: cell-based or functional assay
[2] = target: rat neurotensin receptor NTSR1 (residues 43-396) (rat, UniProt P20789 43-396); assay: cell-based or functional assay
[3] = target: T1, C-terminally truncated human A2AR …; assay: thermostability assay, DM-solubilised NECA-bound A2AR
[4] = target: T2, thioredoxin-A2AR fusion protein (human, UniProt P29274 6-316); assay: analytical SEC of purified NECA-bound A2AR mixed with mini-Gs/q (1:1.2 molar ratio) and Coomassie-stained SDS-PAGE of fractions 10-20
T2 construct: range 6-316; gp67 leader is cleavable; not shown: His10 tag, TEV protease cleavage site and thioredoxin

[5] = target: T3, human adenosine A2A receptor (residues 1-308, N154A) (human, UniProt P29274 1-308); assay: cell-based or functional assay
[6] = target: T3, human adenosine A2A receptor (residues …); assay: cell-based or functional assay; remark: listed apart in the source
[7] = target: T4, human angiotensin II type 1 receptor AT1R (residues 1-359) (human, UniProt P30556 1-359); assay: cell-based or functional assay
T4 sequence (looked up): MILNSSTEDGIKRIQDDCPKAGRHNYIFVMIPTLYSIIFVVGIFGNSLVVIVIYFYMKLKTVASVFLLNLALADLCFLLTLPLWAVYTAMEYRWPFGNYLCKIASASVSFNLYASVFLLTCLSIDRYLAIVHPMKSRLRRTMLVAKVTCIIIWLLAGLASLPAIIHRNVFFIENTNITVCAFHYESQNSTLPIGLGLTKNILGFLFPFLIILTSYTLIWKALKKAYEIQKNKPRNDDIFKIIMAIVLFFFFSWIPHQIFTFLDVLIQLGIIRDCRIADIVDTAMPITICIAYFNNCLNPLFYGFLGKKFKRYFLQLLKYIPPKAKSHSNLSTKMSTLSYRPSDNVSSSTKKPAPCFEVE

[8] = target: T2, thioredoxin-A2AR fusion protein; assay: analytical SEC of purified NECA-bound A2AR mixed with mini-Gs/q (1:1.2 molar ratio) and Coomassie-stained SDS-PAGE of fractions 10-20; remark: listed apart in the source
[9] = target: β1AR-WT (wild type-like turkey β1 adrenergic receptor construct) (turkey, UniProt P07700 33-423, limits assumed); assay: cell-based or functional assay
Sequence of β1AR-WT (wild type-like turkey β1 adrenergic receptor construct) (P07700 other isoform, or with tags, fused parts or gaps limits assumed): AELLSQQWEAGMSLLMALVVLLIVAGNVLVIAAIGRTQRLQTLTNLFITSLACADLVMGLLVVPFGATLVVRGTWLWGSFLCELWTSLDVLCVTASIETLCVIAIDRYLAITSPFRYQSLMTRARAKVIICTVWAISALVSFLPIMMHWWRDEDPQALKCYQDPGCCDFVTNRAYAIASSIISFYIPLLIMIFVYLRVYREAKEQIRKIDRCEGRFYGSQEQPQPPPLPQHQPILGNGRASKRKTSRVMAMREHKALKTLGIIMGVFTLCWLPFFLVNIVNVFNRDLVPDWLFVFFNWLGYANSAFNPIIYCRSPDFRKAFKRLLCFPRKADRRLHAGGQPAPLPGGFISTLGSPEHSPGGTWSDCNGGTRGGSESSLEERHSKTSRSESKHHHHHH

T1 sequence (P29274 1-317 N154A): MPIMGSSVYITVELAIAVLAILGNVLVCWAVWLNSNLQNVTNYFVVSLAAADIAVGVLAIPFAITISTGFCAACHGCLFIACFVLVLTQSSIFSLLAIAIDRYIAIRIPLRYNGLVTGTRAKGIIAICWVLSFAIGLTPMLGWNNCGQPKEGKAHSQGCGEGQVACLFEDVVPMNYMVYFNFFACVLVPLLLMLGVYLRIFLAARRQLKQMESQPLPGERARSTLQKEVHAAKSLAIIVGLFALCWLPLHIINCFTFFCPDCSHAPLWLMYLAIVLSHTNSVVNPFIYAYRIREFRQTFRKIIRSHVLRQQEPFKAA
T3 sequence (P29274 1-308 N154A): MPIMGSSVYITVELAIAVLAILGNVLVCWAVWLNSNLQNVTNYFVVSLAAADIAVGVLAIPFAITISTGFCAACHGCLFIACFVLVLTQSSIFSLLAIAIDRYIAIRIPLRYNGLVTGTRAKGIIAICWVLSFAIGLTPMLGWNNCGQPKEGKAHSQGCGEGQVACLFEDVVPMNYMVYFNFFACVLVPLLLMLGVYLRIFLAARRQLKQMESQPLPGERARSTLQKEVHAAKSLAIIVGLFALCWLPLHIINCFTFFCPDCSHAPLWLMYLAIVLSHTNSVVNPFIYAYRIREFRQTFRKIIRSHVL
Sequence of rat neurotensin receptor NTSR1 (residues 43-396) (P20789 43-396 limits assumed): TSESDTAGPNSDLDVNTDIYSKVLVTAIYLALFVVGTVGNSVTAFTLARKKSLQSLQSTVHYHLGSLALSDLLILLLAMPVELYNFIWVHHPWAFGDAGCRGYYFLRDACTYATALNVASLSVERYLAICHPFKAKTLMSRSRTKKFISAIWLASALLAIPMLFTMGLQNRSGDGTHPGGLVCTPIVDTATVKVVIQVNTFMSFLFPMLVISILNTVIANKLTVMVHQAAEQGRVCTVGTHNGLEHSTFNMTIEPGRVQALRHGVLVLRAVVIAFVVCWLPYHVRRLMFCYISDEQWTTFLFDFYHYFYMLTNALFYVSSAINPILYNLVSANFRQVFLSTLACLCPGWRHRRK
T2 sequence (P29274 other isoform, or with tags, fused parts or gaps): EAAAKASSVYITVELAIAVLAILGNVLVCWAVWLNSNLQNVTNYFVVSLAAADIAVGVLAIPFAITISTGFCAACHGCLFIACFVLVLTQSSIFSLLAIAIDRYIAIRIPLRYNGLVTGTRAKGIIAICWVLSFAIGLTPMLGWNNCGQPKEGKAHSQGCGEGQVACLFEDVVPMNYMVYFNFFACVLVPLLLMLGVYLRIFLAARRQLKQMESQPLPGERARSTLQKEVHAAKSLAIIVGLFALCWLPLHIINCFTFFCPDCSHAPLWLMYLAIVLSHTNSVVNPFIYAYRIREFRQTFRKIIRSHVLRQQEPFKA

B1: mini-Gs/q58 (other)
chain: MGHHHHHHENLYFQGIEKQLQKDKQVYRATHRLLLLGADNSGKSTIVKQMRILHGGSGGSGGTSGIFETKFQVDKVNFHMFDVGGQRDERRKWIQCFNDVTAIIFVVDSSDYNRLQEALNDFKSIWNNRWLRTISVILFLNKQDLLAEKVLAGKSKIEDYFPEFARYTTPEDATPEPGEDPRVTRAKYFIRDEFLRISTASGDGRHYCYPHFTCAVDTENARRIFAAVKDTILQLNLKEYNLV
- apparent Tm of DM-solubilised 3H-NECA-bound A2AR (alone 26.9 °C) [1]: 26.9 °C
- apparent Tm of DDM-solubilised 3H-NTS-bound NTSR1 (alone 24.9 °C) [2]: 25.1 °C
- binding result [3]: no binding (tested: 25 µM)
- binding result [4]: no binding

B2: Mini-Gs414 (other)
chain: GIEKQLQKDKQVYRATHRLLLLGADNSGKSTIVKQMRIYHGGSGGSGGTSGIFETKFQVDKVNFHMFDVGGQRDERRKWIQCFNDVTAIIFVVDSSDYNRLQEALNDFKSIWNNRWLRTISVILFLNKQDLLAEKVLAGKSKIEDYFPEFARYTTPEDATPEPGEDPRVTRAKYFIRDEFLRISTASGDGRHYCYPHFTCAVDTENARRIFNDCRDIIQRMHLRQYELL
- apparent Tm of DM-solubilised NECA-bound A2AR [5]: 32.9 °C
- ΔTm of 3H-NECA-bound A2AR with mini-Gs414 against A2AR only, in decylmaltoside (DM) [6]: 6.8 °C
- ΔTm of 3H-NECA-bound A2AR with mini-Gs414 against A2AR only, in dodecylmaltoside (DDM) [6]: 7.2 °C
- ΔTm of 3H-NECA-bound A2AR with mini-Gs414 against A2AR only, in octylglucoside (OG) [6]: 13.4 °C

B3: mini-Gs/q70 (other)
chain: B2 chain with Y39L, R215K, Q219L, R220Q, H222N, Q225E, E227N, L229V
notes: also called mini-Gs/q chimera; Gs/q construct 70
- apparent Tm of DM-solubilised 3H-NECA-bound A2AR (alone 26.9 °C) [1]: 27.5 °C
- apparent Tm of digitonin-solubilised 125I-AngII-bound AT1R (alone 22.6 °C) [7]: 30.7 °C
- apparent Tm of DDM-solubilised 3H-NTS-bound NTSR1 (alone 24.9 °C) [2]: 32.5 °C
- binding result [3]: no binding (tested: 25 µM)
- binding result [8]: no binding

B4: Mini Gs393 (other)
chain: B2 chain with Y39L
- apparent Tm of β1AR-WT complex in decylmaltoside (receptor alone 20.4 °C) [9]: 30.5 °C
- apparent Tm of β1AR-WT complex in dodecylmaltoside (receptor alone 25.9 °C) [9]: 34.1 °C
- apparent Tm of β1AR-WT complex in nonylglucoside (uncoupled receptor did not survive) [9]: 24.7 °C
- apparent Tm of β1AR-WT complex in octylglucoside (uncoupled receptor did not survive) [9]: 19.7 °C
